Laboratory results: publication PMC3143649 (The Journal of Biological Chemistry, 2011)
“And” between values parts separate entries of the source, which are not always exact repeats. Equal entries are not always repeated. Where two headings read alike, the source gives them in different places.

Legend:
[1] = biological target: the molecule itself; assay: native MS
[2] = biological target: the molecule itself; assay: atomic force microscopy
[3] = biological target: the molecule itself
[4] = biological target: the molecule itself; assay: negative-stain electron microscopy
[5] = biological target: the molecule itself; assay: cross-linking
[6] = biological target: Cys-less MtrE C21S (Neisseria gonorrhoeae) (UniProt Q51006); assay: cross-linking

B1: MtrC α-helical coiled-coil hairpin domain (domain or fragment, Neisseria gonorrhoeae, UniProt P43505 103-183, looked up)
chain: IDSSTYEAGLESARAQLATAQATLAKADADLARYKPLVSADAISKQEYDAAVTAKRSAEASVKAAQAAIKSAGINLNRSRI
stoichiometry N [1]: 2 | stoichiometry N [2]: 6

B2: MtrE, wild type (natural protein, Neisseria gonorrhoeae, UniProt Q51006 1-467, looked up)
chain: CTMIPQYEQPKVEVAETFQNDTSVSSIRAVDLGWHDYFADPRLQKLIDIALERNTSLRTAVLNSEIYRKQYMIERNNLLPTLAANANGSRQGSLSGGNVSSSYNVGLGAASYELDLFGRVRSSSEAALQGYFASVANRDAAHLSLIATVAKAYFNERYAEEAMSLAQRVLKTREETYNAVRIAVQGRRDFRRRPAPAEALIESAKADYAHAARSREQARNALATLINRPIPEDLPAGLPLDKQFFVEKLPAGLSSEVLLDRPDIRAAEHALKQANANIGAARAAFFPSIRLTGSVGTGSVELGGLFKSGTGVWAFAPSITLPIFTWGTNKANLDVAKLRQQAQIVAYESAVQSAFQDVANALAAREQLDKAYDALSKQSRASKEALRLVGLRYKHGVSGALDLLDAERSSYSAEGAALSAQLTRAENLADLYKALGGGLKRDTQTGK
stoichiometry N [3]: 3

B3: MacA (natural protein, E. coli, UniProt P75830 1-371, looked up)
chain: MKKRKTVKKRYVIALVIVIAGLITLWRILNAPVPTYQTLIVRPGDLQQSVLATGKLDALRKVDVGAQVSGQLKTLSVAIGDKVKKDQLLGVIDPEQAENQIKEVEATLMELRAQRQQAEAELKLARVTYSRQQRLAQTKAVSQQDLDTAATEMAVKQAQIGTIDAQIKRNQASLDTAKTNLDYTRIVAPMAGEVTQITTLQGQTVIAAQQAPNILTLADMSAMLVKAQVSEADVIHLKPGQKAWFTVLGDPLTRYEGQIKDVLPTPEKVNDAIFYYARFEVPNPNGLLRLDMTAQVHIQLTDVKNVLTIPLSALGDPVGDNRYKVKLLRNGETREREVTIGARNDTDVEIVKGLEAGDEVVIGEAKPGAAQ
stoichiometry N [4]: 6

B4: NT-MtrC D143C (domain or fragment, Neisseria gonorrhoeae, UniProt P43505 35-412, looked up)
chain: GQPAGREAPAPVVGVVTVHPQTVALTVELPGRLESLRTADVRAQVGGIIQKRLFQEGSYVRAGQPLYQIDSSTYEAGLESARAQLATAQATLAKADADLARYKPLVSACAISKQEYDAAVTAKRSAEASVKAAQAAIKSAGINLNRSRITAPISGFIGQSKVSEGTLLNAGDTTVLATIRQTNPMYVNVTQSASEVMKLRRQIAEGKLLAADGAIAVGIKFDDGTVYPEKGRLLFADPTVDESTGQITLRAAVSNDQNILMPGLYVRVLMDQVAADNAFIVPQQAVTRGAKDTVMIVNAQGGMEPREVTVAQQQGTNWIVTSGLKDGDKVVVEGISIAGMTGAKKVTPKEWAPSENQAAAPQAGVQTASEAKPASEAK
stoichiometry N [5]: 2 | stoichiometry N (MtrC per MtrE) [6]: 2

B5: NT-MtrC, the N-terminal truncated (Δ1–34) MtrC (domain or fragment, Neisseria gonorrhoeae, UniProt P43505 35-412, looked up)
chain: GQPAGREAPAPVVGVVTVHPQTVALTVELPGRLESLRTADVRAQVGGIIQKRLFQEGSYVRAGQPLYQIDSSTYEAGLESARAQLATAQATLAKADADLARYKPLVSADAISKQEYDAAVTAKRSAEASVKAAQAAIKSAGINLNRSRITAPISGFIGQSKVSEGTLLNAGDTTVLATIRQTNPMYVNVTQSASEVMKLRRQIAEGKLLAADGAIAVGIKFDDGTVYPEKGRLLFADPTVDESTGQITLRAAVSNDQNILMPGLYVRVLMDQVAADNAFIVPQQAVTRGAKDTVMIVNAQGGMEPREVTVAQQQGTNWIVTSGLKDGDKVVVEGISIAGMTGAKKVTPKEWAPSENQAAAPQAGVQTASEAKPASEAK
stoichiometry N [1]: 6 and 5

B6: NT-MtrC E149C (domain or fragment, Neisseria gonorrhoeae, UniProt P43505 35-412, looked up)
chain: GQPAGREAPAPVVGVVTVHPQTVALTVELPGRLESLRTADVRAQVGGIIQKRLFQEGSYVRAGQPLYQIDSSTYEAGLESARAQLATAQATLAKADADLARYKPLVSADAISKQCYDAAVTAKRSAEASVKAAQAAIKSAGINLNRSRITAPISGFIGQSKVSEGTLLNAGDTTVLATIRQTNPMYVNVTQSASEVMKLRRQIAEGKLLAADGAIAVGIKFDDGTVYPEKGRLLFADPTVDESTGQITLRAAVSNDQNILMPGLYVRVLMDQVAADNAFIVPQQAVTRGAKDTVMIVNAQGGMEPREVTVAQQQGTNWIVTSGLKDGDKVVVEGISIAGMTGAKKVTPKEWAPSENQAAAPQAGVQTASEAKPASEAK
stoichiometry N [5]: 2 | stoichiometry N (MtrC per MtrE) [6]: 2

B7: MtrD (natural protein, Neisseria gonorrhoeae, UniProt Q51073 1-1067, looked up)
chain: MAKFFIDRPIFAWVISIFIIAAGIFGIKSLPVSQYPSVAAPTITLHAIYPGASAQVMEGSVLSVIERNMNGVEGLDYMSTSADSSGSGSVSLTFTPDTDENLAQVEVQNKLSEVLRTLPATVQQYGVTVSKARSNFLMIVMLSSDVQSTEEMNDYAQRNVVPELQRIEGVGQVRLFGAQRAMRIWVDPKKLQNYNLSFADVGSALSAQNIQISAGSIGSLPAVRGQTVTATVTAQGQLGTAEEFGNVILRANTDGSNIYLKDVAKVGLGMEDYSSSTRLNGVNTTGMAVMLSNSGNAMATAKAVKERLAVLEKYFPQGMSWKTPYDTSKFVEISIEKVIHTLIEAMVLVFVVMYLFLQNIRYTLIPTIVVPISLLGGFAFISYMGMSINVLTMFAMILVIGIVVDDAIVVVENVERIMAGEGLPPKEATKKAMGQISGAVIGITAVLISVFVPLAMFSGAAGNIYKQFALTMASSIAFSAFLALTLTPALCATMLKTIPKGHHEEKKGFFGWFNKKFDSWTHGYEGRVAKVLRKTFRMMVVYIGLAVVGVFLFMRLPTSFLPTEDQGFVMVSVQLPAGATKERTDATLAQVTQLAKSIPEIENIITVSGFSFSGSGQNMAMGFAIFKDWNERTASGSDAVAVAGKLTGMMMGTLKDGFGIAVVPPPILELGNGSGLSINLQDRNNTGHTGIAGEGNELIQKMRASGLFDPSTVRAGGLEDSPQLKIDINRAAAAAQGISFADIRTALASALSSSYVSDFPNQGRLQRVMVQADEDARMQPADILNLTVPNKSGVAVPLSTIATVSWENGTEQSVRFNGYPSMKLSASPATGVSTGQAMEAVQKMVDELGGGYSFEWGGQSSEEAKGGSQTLILYGLAVAAVFLVLAALYESWSIPLAVILVIPLGLIGAAAGVTGRNLFEGLLGSVPSFANDIYFQVGFVTVMGLSAKNAILIIEFAKDLQAQGKSAVEAALEAARLRFRPIIMTSFAFILGVVPLYIAAGASSASQRAIGTTVFWGMLVGTLLSVFLVPLFYVVVRKFFKETAHEHEMAVRHASKAGITGSDDKQY
stoichiometry N [3]: 3
